This note sets out measurements from the supplement of paper PMC10567573.

± gives the standard deviation.

This data set can be described thus: protein stability index of a GFP-peptide fusion (GPS, HEK-293T) (PSI 1-6); higher = more stable. The following applies: c terminus: a fixed tail appended.
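Further: 24-mer peptide tiles fused after GFP, lentivirally expressed, FACS-sorted into six equal bins by GFP/DsRed ratio, decoded by Illumina sequencing, PSI is the read-weighted mean bin number.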

In the case of RVEESALRALREKLFAHSSDLLSE [PPEF2], the protein stability index (treatment: DMSO) is 2.96 ± 0.49 and the protein stability index (treatment: MLN4924 1 uM, 8 h) was 3.27 ± 0.32.
In the case of RVFRVTFLMLAVSLTVPLLGAMML [APMAP], the protein stability index is, setting by setting: (treatment: DMSO) 2.2 ± 0.43; (treatment: MLN4924 1 uM, 8 h) 2.4 ± 0.55.
RWLDESDAEMELRAKEEERLNKLR [HACD3]: the protein stability index (treatment: DMSO) is 4.5 ± 0.3 and the protein stability index (treatment: MLN4924 1 uM, 8 h) came to 4.84 ± 0.42.
The like results for RWPFDHNDFGVFLCKLFPFLQKSS [EDNRA] were, in that order, 2.2 ± 0.19 and 2.05 ± 0.38.
On to RYAVVLNATWLVNSAAHLFGYRPY [SCD], for which the protein stability index (treatment: DMSO) worked out at 2.9 ± 0.65 and the protein stability index (treatment: MLN4924 1 uM, 8 h) worked out at 3.05 ± 0.47.
Consider SADRLTVRCGLLGSLGPVPVLRFD [TRIM14], for which the protein stability index was determined as 2.12 ± 0.31 (treatment: DMSO) and 2.25 ± 0.31 (treatment: MLN4924 1 uM, 8 h).
The like results for SAETSGGLLICLPREQAARFCSEI [SEPHS2] were, in that order, 2.31 ± 0.27 and 2.18 ± 0.26.
As for SAKDGGPQPPDAPQLVSSAREGSS [PLEKHN1], the protein stability index worked out at 5.49 ± 0.19 (treatment: DMSO) and 5.39 ± 0.17 (treatment: MLN4924 1 uM, 8 h).
The like results for SAKPASLRLLQHTPSARRNYRIAG [C6orf223] were, in that order, 3.43 ± 0.24 and 3.75 ± 0.22.
The matching figures for SCNTWPSMPSYSSCTVTTVQPMDR [TBX5]: 3.11 ± 0.14 and 3.09 ± 0.19.
SCPFFETSAAYRYYIDDVFHALVR [RIT1] gave a protein stability index (treatment: DMSO) of 2.41 ± 0.36 and a protein stability index (treatment: MLN4924 1 uM, 8 h) of 2.54 ± 0.38.
The matching figures for SCQSFISWTGDGWEFKLSDPDEVA [ETS1]: 3.12 ± 0.13 and 3.06 ± 0.31.
The matching figures for SDCCRKLLSSGFEIDTPDKFGRTC [ANKRD44]: 2.8 ± 0.27 and 2.97 ± 0.33.
In the case of SDHCITSSDMMDSSSFSNLDLSEE [VDR], the protein stability index came to 5.48 ± 0.13 (treatment: DMSO) and 5.42 ± 0.16 (treatment: MLN4924 1 uM, 8 h).
For the sequence SDLNVVASFDRRGEYIYTGNAKGK [RBBP5], the protein stability index was determined as 4.32 ± 0.6 (treatment: DMSO) and 4.4 ± 0.26 (treatment: MLN4924 1 uM, 8 h).
Regarding SDSMTDVPVDTGVAARTPAVEGLT [TPD52L2], the protein stability index came to 5.3 ± 0.29 (treatment: DMSO) and 5.26 ± 0.15 (treatment: MLN4924 1 uM, 8 h).
As for SDYESIEVPDSYTGPRLSFPLLPD [PPEF2], the protein stability index runs as follows: (treatment: DMSO) 4.13 ± 0.19; (treatment: MLN4924 1 uM, 8 h) 4.09 ± 0.15.
For SEEAAVLQYASLVGQKCSERMLLF [ATE1], the protein stability index is, setting by setting: (treatment: DMSO) 2.37 ± 0.4; (treatment: MLN4924 1 uM, 8 h) 2.19 ± 0.34.
SEEMVKMVLSRPCHPDDQFTTSIL [INTS3]: the protein stability index was determined as 2.94 ± 0.34 (treatment: DMSO) and 2.98 ± 0.39 (treatment: MLN4924 1 uM, 8 h).
Take SEKTDESDTIPYLKKFLYNFDNPW [MIA2]: the protein stability index was 2.78 ± 0.14 (treatment: DMSO) and 2.11 ± 0.039 (treatment: MLN4924 1 uM, 8 h).
The like results for SESPGSLSEVLAQPQGALAPPNCE [DNAAF3] were, in that order, 5.44 ± 0.1 and 5.17 ± 0.17.
SFVYGAVPIGASIYVIGDLDTGTN [GAN]: the protein stability index is 2.35 ± 0.32 (treatment: DMSO) and 2.29 ± 0.61 (treatment: MLN4924 1 uM, 8 h).
The like results for SGEKYDPDANTWTALPPMNEARHN [GAN] were, in that order, 4.61 ± 0.55 and 4.8 ± 0.13.
The like results for SGGGGGGGGGGGGGKSGGIVISPF [CCDC6] were, in that order, 3.53 ± 0.41 and 3.37 ± 0.23.
In turn, SGHGDAHLQEYAGNFQGIRFHYDR [FATE1] yielded a protein stability index (treatment: DMSO) of 3.32 ± 0.17 and a protein stability index (treatment: MLN4924 1 uM, 8 h) of 3.33 ± 0.1.
The like results for SGLGSCLPGSYLSSECHTSGFVGS [KRT36] were, in that order, 2.62 ± 0.32 and 2.69 ± 0.23.
For SHLCSCLAMLALLSPLSLAQYDSW [LOXL2], the protein stability index is, setting by setting: (treatment: DMSO) 3.02 ± 0.29; (treatment: MLN4924 1 uM, 8 h) 2.96 ± 1.2.
The like results for SIERSHRIATETDQIGSEIIEELG [VTI1B] were, in that order, 4.88 ± 0.33 and 5 ± 0.2.
In turn, SILLCLLASGLVVFFLFPHSVLVD [TMEM106C] had a protein stability index (treatment: DMSO) of 3 ± 0.49 and a protein stability index (treatment: MLN4924 1 uM, 8 h) of 2.56 ± 0.044.
